US20120107330A1 (published 2012)

Assays:
[1] = target: T1, mouse serum albumin (MSA, Sigma-Aldrich) (mouse, UniProt P07724 25-608); test: BIAcore, MSA on CM5 chip
T1 construct: also called mouse albumin
Method: (§1) FIG. 22. BIAcore analysis for binding of DOM0100-AlbudAb in-line fusions to mouse serum albumin (MSA). MSA (Sigma-Aldrich) was coated on a BIAcore CM5 chip using EDC/NHS chemistry according to manufacturer's instructions. Subsequently, the DMS constructs, each consisting N-terminally to C-terminally of an anti-TNFR1 dAb-Linker-AlbudAb and identified in Table 6, were injected at 1 μM over the MSA surface and binding was monitored. […] The corresponding BIAcore trace for each DMS clone is indicated with an arrow.
After expression and purification, all constructs were tested on the BIAcore for binding to both mouse and human serum albumin. The off-rates were determined and used to discriminate between the AlbudAbs for their suitability in prolonging the half-life of the fusion molecule. Whereas the linker had little influence on the affinity of the AlbudAb for albumin, a significant difference existed between the dAbs and their albumin affinity. The best AlbudAb for mouse binding was DOM7h-11-15 followed by DOM7m-16 and DOM7h-11-12 (FIG. 22).

[2] = target: T2, human serum albumin (HSA, Sigma-Aldrich) (human, UniProt P02768 25-609); test: BIAcore, HSA on CM5 chip
T2 construct: also called human albumin
T2 sequence (P02768 25-609 limits assumed): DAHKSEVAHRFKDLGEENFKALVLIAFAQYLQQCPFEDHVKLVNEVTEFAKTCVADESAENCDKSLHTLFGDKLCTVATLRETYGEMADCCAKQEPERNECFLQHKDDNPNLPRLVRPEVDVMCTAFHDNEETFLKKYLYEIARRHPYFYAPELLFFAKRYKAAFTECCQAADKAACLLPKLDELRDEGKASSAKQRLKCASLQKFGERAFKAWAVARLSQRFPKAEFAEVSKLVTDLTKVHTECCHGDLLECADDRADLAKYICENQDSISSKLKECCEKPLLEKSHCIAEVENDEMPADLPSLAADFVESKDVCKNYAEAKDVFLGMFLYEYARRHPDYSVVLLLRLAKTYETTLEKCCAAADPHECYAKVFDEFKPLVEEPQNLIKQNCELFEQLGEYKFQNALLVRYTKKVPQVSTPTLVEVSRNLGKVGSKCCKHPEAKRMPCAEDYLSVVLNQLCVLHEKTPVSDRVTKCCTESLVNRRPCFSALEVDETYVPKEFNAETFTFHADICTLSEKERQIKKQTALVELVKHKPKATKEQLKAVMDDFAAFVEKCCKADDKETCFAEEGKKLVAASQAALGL
Method: as §1, with “23.” for “22.”, “human” for “mouse”, “(HSA). HSA” for “(MSA). MSA”, “HSA” for “MSA”

[3] = target: T3, human TNFR1 (recombinant, R&D Systems cat no. 636-R1/CF, biotinylated) (human, UniProt P19438 30-211, limits assumed, biotinylated with EZ-Link NHS-LC-LC-biotin); test: BIAcore, human TNFR1
T3 construct: it is not tied to the BIAcore reagent; also called p55; hTNFR1
T3 sequence (looked up): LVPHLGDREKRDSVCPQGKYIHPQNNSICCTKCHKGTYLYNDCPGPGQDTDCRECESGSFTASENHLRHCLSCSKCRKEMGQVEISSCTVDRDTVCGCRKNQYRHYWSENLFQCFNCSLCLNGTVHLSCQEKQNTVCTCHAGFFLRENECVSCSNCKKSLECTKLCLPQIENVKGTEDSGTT

[4] = target: T4, human TNFR1 on MRC-5 cells (human, UniProt P19438 30-455); test: cell-based or functional assay
T4 sequence (looked up): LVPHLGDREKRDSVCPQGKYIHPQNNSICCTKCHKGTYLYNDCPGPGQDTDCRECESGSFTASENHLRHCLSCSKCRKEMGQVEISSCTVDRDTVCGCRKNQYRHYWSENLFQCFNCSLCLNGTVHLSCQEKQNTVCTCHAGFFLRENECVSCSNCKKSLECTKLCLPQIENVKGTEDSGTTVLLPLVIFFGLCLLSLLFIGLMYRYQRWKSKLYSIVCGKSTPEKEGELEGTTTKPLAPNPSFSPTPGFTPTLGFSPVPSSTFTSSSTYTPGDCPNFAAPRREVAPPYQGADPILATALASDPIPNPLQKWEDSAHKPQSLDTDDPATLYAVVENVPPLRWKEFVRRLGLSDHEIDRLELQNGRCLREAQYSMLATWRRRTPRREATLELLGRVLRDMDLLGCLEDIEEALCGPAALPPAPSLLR

[5] = target: T3, human TNFR1 (recombinant, R&D Systems …); test: BIAcore, human TNFR1 on SA chip
Source text: (§2) BIAcore was done to determine the association and dissociation rates of the different dAbs and in that way establish their binding affinity for both human and mouse TNFR1. Experiments were done using biotinylated TNFR1 (R&D Systems), of the respective species, coupled to streptavidin-coated BIAcore chips followed by injection of a concentration range of the dAbs.

[6] = target: T5, mouse TNFR1 (recombinant, R&D Systems cat no. 425-R1-050/CF, biotinylated) (mouse, UniProt P25118 22-212, biotinylated with EZ-Link NHS-LC-LC-biotin); test: BIAcore, mouse TNFR1 on SA chip
T5 construct: also called murine TNFR1; biotinylated mouse TNFR1
T5 sequence (looked up): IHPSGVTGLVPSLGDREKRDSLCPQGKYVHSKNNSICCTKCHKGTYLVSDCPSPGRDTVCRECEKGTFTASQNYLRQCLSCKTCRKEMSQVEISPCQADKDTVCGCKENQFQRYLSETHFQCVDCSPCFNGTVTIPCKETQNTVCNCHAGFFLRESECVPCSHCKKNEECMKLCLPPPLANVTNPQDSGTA
Source text: as §2

[7] = target: T6, mouse TNFR1 on L929 cells (mouse, UniProt P25118 30-454); test: cell-based or functional assay
T6 sequence (looked up): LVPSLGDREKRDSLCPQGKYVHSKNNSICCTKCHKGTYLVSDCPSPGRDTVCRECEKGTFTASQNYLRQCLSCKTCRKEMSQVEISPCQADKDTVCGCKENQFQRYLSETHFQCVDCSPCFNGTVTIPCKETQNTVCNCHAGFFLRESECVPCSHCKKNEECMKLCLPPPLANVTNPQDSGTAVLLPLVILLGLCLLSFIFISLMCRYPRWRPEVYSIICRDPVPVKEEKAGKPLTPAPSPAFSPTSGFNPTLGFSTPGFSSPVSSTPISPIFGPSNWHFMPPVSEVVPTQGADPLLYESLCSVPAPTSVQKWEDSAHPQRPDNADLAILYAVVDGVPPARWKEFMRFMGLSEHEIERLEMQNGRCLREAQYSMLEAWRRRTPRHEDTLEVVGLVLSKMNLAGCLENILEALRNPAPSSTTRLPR

[8] = target: T4, human TNFR1 on MRC-5 cells; test: cell-based or functional assay; remark: listed apart in the source
[9] = target: T7, Cynomologus monkey TNFR1 on CYNOM-K1 cells (Cynomolgus monkey, UniProt Q2PFV5 30-455); test: cell-based or functional assay
T7 sequence: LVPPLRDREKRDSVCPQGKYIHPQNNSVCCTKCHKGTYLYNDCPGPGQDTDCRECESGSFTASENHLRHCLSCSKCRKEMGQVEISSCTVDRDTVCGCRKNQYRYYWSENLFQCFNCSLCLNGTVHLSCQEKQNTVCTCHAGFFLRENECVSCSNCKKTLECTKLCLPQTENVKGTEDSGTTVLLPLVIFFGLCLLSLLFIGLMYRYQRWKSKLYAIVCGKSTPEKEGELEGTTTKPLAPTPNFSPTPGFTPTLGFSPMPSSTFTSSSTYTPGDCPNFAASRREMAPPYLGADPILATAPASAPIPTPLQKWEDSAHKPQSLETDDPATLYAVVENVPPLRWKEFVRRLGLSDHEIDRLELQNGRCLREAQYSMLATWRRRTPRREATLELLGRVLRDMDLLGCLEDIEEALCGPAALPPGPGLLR

B1: DMS0189 (bispecific antibody)
chain: EVQLLESGGGLVQPGGSLRLSCAASGFTFVKYSMGWVRQAPGKGPEWVSQISNTGDRTYYADSVKGRFTISRDNSKNTLYLQMNSLRAEDTAVYYCAIYTGRWEPFDYWGQGTLVTVSSASTDIQMTQSPSSLSASVGDRVTITCRASRPIGTTLSWYQQKPGKAPKLLILWNSRLQSGVPSRFSGSGSGTDFTLTISSLQPEDFATYYCAQAGTHPTTFGQGTKVEIKRAAAEQKLISEEDLN
notes: anti-TNFR1 dAb / AlbudAb in-line fusion
koff [1]: 0.13 s⁻¹ | koff [2]: 0.017 s⁻¹

B2: DMS0192 (bispecific antibody)
chain: EVQLLESGGGLVQPGGSLRLSCAASGFTFVKYSMGWVRQAPGKGPEWVSQISNTGDRTYYADSVKGRFTISRDNSKNTLYLQMNSLRAEDTAVYYCAIYTGRWEPFDYWGQGTLVTVSSASTSGPSDIQMTQSPSSLSASVGDRVTITCRASQSIIKHLKWYQQKPGKAPKLLIYGASRLQSGVPSRFSGSGSGTDFTLTISSLQPEDFATYYCQQGARWPQTFGQGTKVEIKRAAAEQKLISEEDLN
notes: as for B1
koff [1]: 0.09 s⁻¹ | binding result [2]: no binding (tested: 1 µM)

B3: DMS0191 (bispecific antibody)
chain: EVQLLESGGGLVQPGGSLRLSCAASGFTFVKYSMGWVRQAPGKGPEWVSQISNTGDRTYYADSVKGRFTISRDNSKNTLYLQMNSLRAEDTAVYYCAIYTGRWEPFDYWGQGTLVTVSSASTDIQMTQSPSSLSASVGDRVTITCRASQSIIKHLKWYQQKPGKAPKLLIYGASRLQSGVPSRFSGSGSGTDFTLTISSLQPEDFATYYCQQGTRWPQTFGQGTKVEIKRAAAEQKLISEEDLN
notes: as for B1
koff [1]: 0.11 s⁻¹ | binding result [2]: no binding (tested: 1 µM)

B4: DMS0190 (bispecific antibody)
chain: EVQLLESGGGLVQPGGSLRLSCAASGFTFVKYSMGWVRQAPGKGPEWVSQISNTGDRTYYADSVKGRFTISRDNSKNTLYLQMNSLRAEDTAVYYCAIYTGRWEPFDYWGQGTLVTVSSASTSGPSDIQMTQSPSSLSASVGDRVTITCRASRPIGTTLSWYQQKPGKAPKLLILWNSRLQSGVPSRFSGSGSGTDFTLTISSLQPEDFATYYCAQAGTHPTTFGQGTKVEIKRAAAEQKLISEEDLN
notes: as for B1
koff [1]: 0.16 s⁻¹ | koff [2]: 0.019 s⁻¹

B5: DOM1h-574-12 (other)
VH: EVQLLESGGGLVQPGGSLRLSCAASGFTFVKYSMGWVRQAPGKGLEWVSQISNTGDHTYYADSVKGRFTISRDNSKNTLYLQMNSLRAEDTAVYYCAKYTGRWEPFDYWGQGTLVTVSS
notes: VH dAb
Kd [3]: 23 nM | MRC-5 ND50 (TNFα-mediated IL-8 release) [4]: 130 nM

B6: DOM1h-574-156 (other)
VH: EVQLLESGGGLVQPGGSLRLSCAASGFTFFKYSMGWVRQAPGKGLEWVSQISDTADRTYYAHSVKGRFTISRDNSKNTLYLQMNSLRAEDTAVYYCAIYTGRWVPFEYWGQGTLVTVSS
notes: VH dAb
Kd [5]: 0.15 nM | koff [5]: 4.3e-05 s⁻¹ | kon [5]: 300000 M⁻¹ s⁻¹ | Kd [6]: 2.1 nM | koff [6]: 0.0003 s⁻¹ | kon [6]: 140000 M⁻¹ s⁻¹ | Mouse L929 ND50 [7]: 22 nM | Human MRC5 ND50 [8]: 0.9 nM

B7: DOM1h-574-162 (other)
VH: EVQLLESGGGLVQPGGSLRLSCAASGFTFFKYSMGWVRQAPGKGLEWVSQISDTADRTYYSHSVKGRFTISRDNSKNTLYLQMNSLRAEDTAVYYCAIYTGRWVPFEYWGQGTLVTVSS
notes: VH dAb
Kd [5]: 0.15 nM | koff [5]: 4.4e-05 s⁻¹ | kon [5]: 290000 M⁻¹ s⁻¹ | Kd [6]: 2.5 nM | koff [6]: 0.00034 s⁻¹ | kon [6]: 140000 M⁻¹ s⁻¹ | Mouse L929 ND50 [7]: 27 nM | Human MRC5 ND50 [8]: 1.2 nM

B8: DOM1h-574-139 (other)
VH: EVQLLESGGGLVQPGGSLRLSCAASGFTFLKYSMGWVRQAPGKGLEWVSQISDTADRTYYAHSVKGRFTISRDNSKNTLYLQMNSLRAEDTAVYYCAIYTGRWAPFEYWGQGTLVTVSS
notes: VH dAb
Kd [5]: 0.27 nM | koff [5]: 3.7e-05 s⁻¹ | kon [5]: 140000 M⁻¹ s⁻¹ | Kd [6]: 4.4 nM | koff [6]: 0.0003 s⁻¹ | kon [6]: 70000 M⁻¹ s⁻¹ | Mouse L929 ND50 [7]: 28 nM | Cynomologus CYNOM-K1 ND50 [9]: 1.8 nM | Human MRC5 ND50 [8]: 1.1 nM

B9: DOM1h-574-13 (other)
VH: EVQLLESGGGLVQPGGSLRLSCAASGFTFVKYSMGWVRQAPGKGLEWVSQISNTGDRTYYADSVKGRFTISRDNSKNTLYLQMNSLRAEDTAVYYCAKYTGRWEPFDYWGQGTLVTVSS
notes: VH dAb
Kd [3]: 44 nM | MRC-5 ND50 (TNFα-mediated IL-8 release) [4]: 300 nM

B10: DOM1h-574-18 (other)
VH: EVQLLESGGGLVQPGGSLRLSCAASGFTFGKYSMGWVRQAPGKDLEWVSQISNTGDRTYYADSVKGRFTISRDNSKNTLYLQMNSLRAEDTAVYYCAIYTGRWEPFDYWGQGTLVTVSS
notes: VH dAb
Kd [3]: 4.1 nM | MRC-5 ND50 (TNFα-mediated IL-8 release) [4]: 17 nM

B11: DOM1h-574-17 (other)
VH: EVQLLESGGGLVQPGGSLRLSCAASGFTFVKYSMGWVRQAPGKGPEWVSQISNTGDHTYYADSVKGRFTISRDNSKNTLYLQMNSLRAEDTAVYYCAIYTGRWEPFDYWGQGTLVTVSS
notes: VH dAb
Kd [3]: 8.4 nM | MRC-5 ND50 (TNFα-mediated IL-8 release) [4]: 20 nM
